According to US20240325562A1, “INTERNALIZING BINDING MOLECULES” (LinXis B.V., priority 2020, published 2024):

How the values were obtained:
[1] = system: NIH 3T3 2.2 cells that were transiently transfected with hIGF2R; assay: Internalization by fluorescence microscopy after acid wash, hIGF2R-transfected NIH 3T3 2.2 cells; type: cell-based, human; conditions: 25 nM Alexa fluor 647 conjugate
Procedure: (§1) First, Alexa fluor 647-conjugates of the VHH 13F11 and the biparatopic VHH construct […] were added to A549 cells that endogenously express hIGF2R (FIG. 16A), NIH 3T3 2.2 cells that were transiently transfected with hIGF2R (FIG. 16B), or mock transfected NIH 3T3 2.2 cells (as a negative control). For this, the cells were incubated with 25 nM of the VHH or the VHH construct. Before fluorescent microscopy readout, to ensure that only signal of internalized VHH or mouse anti-IGF2R was present, an acid wash (0.2M glycine-HCl, 150 mM NaCl, pH 2.3) was used to remove VHH or mouse anti-IGF2R bound to the target receptors on the cell surface. The efficiency of the acid wash procedure was verified by incubating the hIGF2R transfected NIH 3T3 2.2 cells with 13F11-13E8-A647 on ice and subsequently treating these cells with an acid wash while remaining on ice to prevent internalization (FIG. 16D). […] Summarizing, biparatopic 13F11-13E8 clearly internalizes in cells expressing hIGF2R on the cell surface.

hIGF2R-ECD = molecular target: T1, hIGF2R-ECD (Homo sapiens, UniProt P11717); assay: Competition assay with 13F11-A647 as reporter VHH on immobilized hIGF2R-ECD; type: binding; conditions: 10 nM 13F11-A647, 250 nM unconjugated competitor VHH
T1 construct: immobilized recombinant human extracellular domain of IGF2R (hIGF2R-ECD) was used
Procedure: With the term “compete” is meant that in a competition assay, such as for instance described in Example 6 of the present invention, the addition of a binding molecule induces a significant decrease in binding of a given VHH, i.e., the VHH to which the competing is determined. “Significant” in this respect is preferably a decrease of >5%, preferably >10% when 250 nM of a binding molecule is added to 10 nM of a fluorescence labelled VHH in an ELISA. […] The same test conditions and threshold apply to a binding molecule directed to PDGFRB when determining whether a binding molecule competes with a given VHH.
(§2) Biparatopic VHH constructs contain two VHH which bind to a different epitope, i.e. which are non-competitive binders. To identify (a) pair(s) of non-competitive binders, competition assays were performed. In the example shown, an Alexa fluor-conjugate of the high affine VHH 13F11 was used as the reporter VHH (13F11-A647, see example 10.2). In the assay, a non-saturating amount (10 nM) of 13F11-A647 was incubated with immobilized hIGF2R-ECD in the presence or absence of 250 nM unconjugated competitor VHH to allow competition to take place.

[2] = system: A549 cells that endogenously express hIGF2R; assay: Internalization by fluorescence microscopy after acid wash, A549 cells; type: cell-based, human; conditions: 25 nM Alexa fluor 647 conjugate
Procedure: as §1

[3] = system: mock transfected NIH 3T3 2.2 cells; assay: Internalization by fluorescence microscopy after acid wash, mock transfected cells; type: cell-based; conditions: 25 nM Alexa fluor 647 conjugate, negative control cells
Procedure: as §1

hPDGFRB = hPDGFRB (Homo sapiens, UniProt P09619); assay: Competition assays of PDGFRB VHHs on hPDGFRB; type: binding; conditions: IRDye800-conjugated SP26P as reporter
Chain of hPDGFRB (P09619 33-532 limits assumed): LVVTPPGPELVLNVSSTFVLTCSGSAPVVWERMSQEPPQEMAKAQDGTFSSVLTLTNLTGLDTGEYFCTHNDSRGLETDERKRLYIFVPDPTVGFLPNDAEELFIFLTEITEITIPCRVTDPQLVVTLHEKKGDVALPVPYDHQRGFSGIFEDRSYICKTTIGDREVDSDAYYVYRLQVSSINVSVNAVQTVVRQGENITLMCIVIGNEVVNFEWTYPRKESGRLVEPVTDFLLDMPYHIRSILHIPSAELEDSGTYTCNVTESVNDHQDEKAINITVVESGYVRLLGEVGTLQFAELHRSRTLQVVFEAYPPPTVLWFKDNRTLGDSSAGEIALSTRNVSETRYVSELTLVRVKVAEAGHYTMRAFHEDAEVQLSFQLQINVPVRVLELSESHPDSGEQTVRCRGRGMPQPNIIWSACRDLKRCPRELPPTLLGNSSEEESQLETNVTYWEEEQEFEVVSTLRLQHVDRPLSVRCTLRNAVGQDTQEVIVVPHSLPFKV
Procedure: as §2
(§3) Similar as to in example 6.1, competition assays were performed to identify unique hPDGFRB- or rPDGFRB binders. Across 10 PDGFRB-binding VHHs obtained from libraries 1 and 2 (e.g. the VHH raised against hPDGFRB), four main groups were identified being first SP01P, SP02P, SP07P and SP13P, second SP05P, SP08P and SP10P, third SP12P and SP20P and finally SP14P. All VHH within each of the first three groups mutually competed.
To evaluate whether the obtained VHHs would qualify as building blocks for multivalent VHH constructs that bind hPDGFRB as well as rPDGFRB (e.g. ‘species cross-reactive’ VHH constructs), competition assays were performed using the most promising VHHs SP02 (raised against hPDGFRB) and SP26P (raised against rPDGFRB).

rPDGFRB = rPDGFRB (Rattus norvegicus, UniProt Q05030); assay: Competition assays of PDGFRB VHHs on rPDGFRB; type: binding; conditions: VHHs from libraries 3 and 4
Chain of rPDGFRB (Q05030 32-1097): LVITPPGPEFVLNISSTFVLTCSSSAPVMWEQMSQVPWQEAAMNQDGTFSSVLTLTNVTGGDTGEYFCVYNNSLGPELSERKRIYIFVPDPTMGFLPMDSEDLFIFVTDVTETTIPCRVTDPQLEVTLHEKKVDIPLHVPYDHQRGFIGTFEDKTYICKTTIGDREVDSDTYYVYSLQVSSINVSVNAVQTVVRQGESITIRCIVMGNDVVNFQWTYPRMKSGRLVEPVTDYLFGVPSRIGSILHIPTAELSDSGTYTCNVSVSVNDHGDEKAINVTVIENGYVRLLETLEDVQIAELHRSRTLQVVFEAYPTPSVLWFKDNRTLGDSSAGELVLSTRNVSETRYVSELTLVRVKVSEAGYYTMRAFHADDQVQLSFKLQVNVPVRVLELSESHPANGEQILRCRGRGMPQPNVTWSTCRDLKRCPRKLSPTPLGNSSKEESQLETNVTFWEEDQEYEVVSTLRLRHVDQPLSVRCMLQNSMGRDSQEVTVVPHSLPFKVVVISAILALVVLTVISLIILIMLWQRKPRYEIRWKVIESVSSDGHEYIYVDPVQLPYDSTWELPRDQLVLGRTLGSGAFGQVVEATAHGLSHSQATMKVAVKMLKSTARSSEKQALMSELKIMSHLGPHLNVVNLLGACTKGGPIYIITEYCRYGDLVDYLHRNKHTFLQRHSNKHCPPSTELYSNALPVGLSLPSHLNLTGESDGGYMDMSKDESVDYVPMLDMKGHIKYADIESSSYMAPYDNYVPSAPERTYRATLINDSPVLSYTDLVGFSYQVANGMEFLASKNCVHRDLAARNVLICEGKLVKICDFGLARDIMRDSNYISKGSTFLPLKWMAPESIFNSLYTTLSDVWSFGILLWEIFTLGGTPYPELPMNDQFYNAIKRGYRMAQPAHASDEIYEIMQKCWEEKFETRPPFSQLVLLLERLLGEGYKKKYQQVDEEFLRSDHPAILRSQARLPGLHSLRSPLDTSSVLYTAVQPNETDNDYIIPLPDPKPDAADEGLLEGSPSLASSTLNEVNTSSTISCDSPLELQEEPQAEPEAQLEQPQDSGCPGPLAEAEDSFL
Procedure: as §2, §3

IGF2R [4] = molecular target: T2, IGF2R (Rattus norvegicus, UniProt G3V824); assay: Staining of rat tissue cryo-sections for IGF2R; conditions: 50 nM, overnight 4° C.
T2 construct: from tissue; host or cells: cryo-sections of rat tissues (liver, kidney, spleen, heart, ileum, brain); Sprague-Dawley BDL and SHAM rats
T2 sequence (G3V824 36-2481): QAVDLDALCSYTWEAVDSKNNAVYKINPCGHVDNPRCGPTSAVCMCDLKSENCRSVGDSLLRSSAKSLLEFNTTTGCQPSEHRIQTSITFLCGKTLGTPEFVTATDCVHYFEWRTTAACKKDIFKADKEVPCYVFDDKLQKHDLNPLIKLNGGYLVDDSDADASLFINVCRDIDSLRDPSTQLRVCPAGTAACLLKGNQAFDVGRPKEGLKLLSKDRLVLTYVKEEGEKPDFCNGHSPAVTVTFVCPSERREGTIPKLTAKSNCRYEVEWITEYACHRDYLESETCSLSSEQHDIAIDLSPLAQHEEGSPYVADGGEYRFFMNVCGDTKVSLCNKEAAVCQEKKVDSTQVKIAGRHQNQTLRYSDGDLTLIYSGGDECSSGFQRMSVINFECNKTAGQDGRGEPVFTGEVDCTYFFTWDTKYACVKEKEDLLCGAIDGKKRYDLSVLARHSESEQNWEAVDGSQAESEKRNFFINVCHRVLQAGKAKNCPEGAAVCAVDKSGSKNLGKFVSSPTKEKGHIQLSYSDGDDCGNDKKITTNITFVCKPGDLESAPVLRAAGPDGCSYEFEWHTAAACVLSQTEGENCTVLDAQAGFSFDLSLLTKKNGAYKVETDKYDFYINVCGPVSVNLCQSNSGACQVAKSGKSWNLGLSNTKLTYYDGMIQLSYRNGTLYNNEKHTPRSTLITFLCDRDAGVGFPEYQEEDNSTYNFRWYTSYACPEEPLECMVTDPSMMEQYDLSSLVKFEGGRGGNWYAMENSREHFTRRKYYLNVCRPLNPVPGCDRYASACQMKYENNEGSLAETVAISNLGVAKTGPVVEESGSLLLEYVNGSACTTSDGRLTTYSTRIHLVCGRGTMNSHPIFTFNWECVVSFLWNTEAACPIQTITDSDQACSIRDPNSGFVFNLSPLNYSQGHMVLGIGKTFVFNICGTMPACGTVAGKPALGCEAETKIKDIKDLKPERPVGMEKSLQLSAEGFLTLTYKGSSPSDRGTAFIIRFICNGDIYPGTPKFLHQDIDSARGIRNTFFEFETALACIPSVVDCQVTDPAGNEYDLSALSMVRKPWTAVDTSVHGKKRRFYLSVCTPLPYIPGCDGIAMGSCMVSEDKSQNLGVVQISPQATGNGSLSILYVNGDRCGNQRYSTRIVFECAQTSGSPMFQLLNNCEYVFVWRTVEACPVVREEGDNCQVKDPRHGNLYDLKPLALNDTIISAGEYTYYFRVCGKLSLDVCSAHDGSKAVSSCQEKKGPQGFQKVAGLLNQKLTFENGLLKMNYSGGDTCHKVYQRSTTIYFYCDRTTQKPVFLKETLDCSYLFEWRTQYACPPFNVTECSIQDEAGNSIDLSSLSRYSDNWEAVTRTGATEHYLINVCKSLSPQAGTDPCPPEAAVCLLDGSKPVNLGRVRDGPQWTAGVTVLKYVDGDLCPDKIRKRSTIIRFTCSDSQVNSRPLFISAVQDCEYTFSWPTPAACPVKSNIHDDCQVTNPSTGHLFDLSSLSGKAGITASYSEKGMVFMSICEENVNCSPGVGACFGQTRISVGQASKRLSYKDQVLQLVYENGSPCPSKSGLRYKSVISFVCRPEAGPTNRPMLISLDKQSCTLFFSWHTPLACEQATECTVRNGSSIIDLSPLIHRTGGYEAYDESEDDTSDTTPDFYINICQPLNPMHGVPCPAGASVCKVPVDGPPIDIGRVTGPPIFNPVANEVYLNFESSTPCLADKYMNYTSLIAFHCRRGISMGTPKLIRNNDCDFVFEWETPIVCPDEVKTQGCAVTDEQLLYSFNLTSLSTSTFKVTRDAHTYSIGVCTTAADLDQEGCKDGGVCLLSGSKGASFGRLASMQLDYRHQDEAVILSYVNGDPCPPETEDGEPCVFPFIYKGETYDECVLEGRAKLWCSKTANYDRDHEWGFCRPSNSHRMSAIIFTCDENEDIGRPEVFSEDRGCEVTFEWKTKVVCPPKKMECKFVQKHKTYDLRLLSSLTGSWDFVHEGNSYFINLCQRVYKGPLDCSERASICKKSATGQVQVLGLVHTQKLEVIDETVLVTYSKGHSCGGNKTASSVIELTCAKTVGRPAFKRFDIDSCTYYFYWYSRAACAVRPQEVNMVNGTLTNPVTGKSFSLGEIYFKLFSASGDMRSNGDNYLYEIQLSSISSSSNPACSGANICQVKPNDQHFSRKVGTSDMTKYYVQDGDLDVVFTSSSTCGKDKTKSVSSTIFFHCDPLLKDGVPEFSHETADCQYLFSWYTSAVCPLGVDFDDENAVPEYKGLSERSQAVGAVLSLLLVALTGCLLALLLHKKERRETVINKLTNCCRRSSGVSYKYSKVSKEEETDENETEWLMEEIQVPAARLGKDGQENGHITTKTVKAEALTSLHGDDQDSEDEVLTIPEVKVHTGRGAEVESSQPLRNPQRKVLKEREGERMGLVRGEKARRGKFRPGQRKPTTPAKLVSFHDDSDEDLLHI
Procedure: (§4) To evaluate whether F11E8-ABD bound to IGF2R as (over-) expressed in the cirrhotic liver, various cryo-sections of tissues (liver, kidney, spleen, heart, ileum, brain) obtained from both healthy (SHAM) and cirrhotic (BDL) rats (preparation procedure as outlined in example 15) were stained with 13F11-13E8-ABD conjugated to Alexa Fluor 647 (13F11-13E8-ABD-A647, conjugation method as described in example 10.2.). Staining was performed with 50 nM 13F11-13E8-ABD-AF647 during overnight incubation at 4° C. Subsequently, the sections were washed and stained with DAPI, mounted with mowiol mounting medium (Merck) and imaged on a Zeiss LSM700 laser scanning confocal microscope with a 20× objective. […] In the tissues other than the liver, no upregulation of IGF2R was observed.

PDGFRB = molecular target: T3, PDGFRB (Rattus norvegicus, UniProt Q05030); assay: Staining of rat tissue cryo-sections for PDGFRB; conditions: 50 nM, overnight 4° C.
T3 construct: from tissue; host or cells: cryo-sections of rat tissues (liver, kidney, spleen, heart, ileum, brain) of BDL and SHAM rats
T3 sequence (Q05030 32-1097): as the sequence (Q05030 32-1097) above
Procedure: as §4, with “SP02-SP26-ABD” for “F11E8-ABD”, “PDGFRB” for “IGF2R”, “SP02-SP26-ABD” for “13F11-13E8-ABD”, “(SP02-SP26-ABD-A647,” for “(13F11-13E8-ABD-A647,”, “SP02-SP26-ABD-AF647” for “13F11-13E8-ABD-AF647”, “(Merck),” for “(Merck)”

IGF2R [5] = molecular target: T2, IGF2R; assay: In situ detection of infused test conjugate in liver sections; type: in vivo; conditions: for detection of conjugate in liver: one hour after 5 mg/kg i.v., anti-VHH antiserum
Procedure: (§5) After catheterization and hemodynamic stabilization, rats were dosed with 5 mg/kg test conjugate or mock conjugate i.v. through the lateral tail vein and pressures were monitored continuously (example 15.1.). One hour after dosing, animals were sacrificed after which tissues were isolated for ex vivo analysis (example 15.2.).
After isolation, livers obtained from test conjugate-infused BDL and SHAM rats were fixated with paraformaldehyde, soaked in 30% (w/v) sucrose in PBS, and sectioned using cryo-microtome.
To detect the test conjugate in situ, tissue sections were stained with a rabbit polyclonal anti-VHH antiserum recognizing the 13F11-13E8 moiety of the conjugate, followed by an anti-rabbit antibody conjugated to the fluorophore Alexa-488 for visualization by confocal fluorescence microscopy (cf. example 14).

[6] = system: BDL rats (portal hypertension); assay: Portal pressure and mean arterial pressure in BDL and SHAM rats; type: in vivo, Sprague-Dawley rats; conditions: 5 mg/kg i.v.
Excerpt: To evaluate in vivo functionality, 13F11-13E8-ABD was conjugated to a Y27632-maleimide modified functional moiety (1e) (the test conjugate) as outlined in example 10.2. To provide a comparator, a similar amount of 13F11-13E8-ABD was conjugated to N-ethylmaleimide in a parallel and similar preparation (the mock conjugate).
To establish animals displaying portal hypertension (Klein et al, Fibrosis: Methods and Protocols. Methods in Molecular Biology. 2017 (1627): 91-122.), Sprague-Dawley rats were subjected to bile duct ligation (BDL) through median laparotomy under ketamine/xylazine-induced anaesthesia i.p. (BDL rats). To provide healthy controls, a second cohort of rats was subjected to the same surgical procedure except for actual ligation of the bile duct (SHAM rats). Surgery was followed-up with pain control medication (carprofen s.c.). Approximately five weeks after surgery, ketamine/xylazine anesthetized rats were subjected to median laparotomy, after which one catheter was inserted through an ileocecal vein to the portal vein, and one catheter was inserted into the femoral artery. The catheters were connected to pressure recording equipment, for assessment of portal pressure and mean arterial pressure, respectively.
as §5

[7] = BDL rats, monitored for one hour

B1: 13F11: VHH single domain antibody targeting IGF2R, SEQ ID NO: 273 (protein)
VHH: EVQLVESGGRLVQPGDSLRLSCAASGRTFSDNAMGWFRQAPGKERRFVAGISWAGGSTYYSDSVKGRFTISRDNAKNTVYLQMNSLKPEDTAVYYCAAGLRAWVQRMPKDYNYWGQGTQVTVSS
B1 was tested, and the internalization [1] was “internalized”, the “competition with reporter VHH 13F11-A647” value (hIGF2R-ECD) was “competed with 13F11-A647” and the internalization [2] was “no internalization was observed”. The internalization [3] was “no internalization was observed”.

B2: SP26P: VHH single domain antibody targeting PDGFRB, SEQ ID NO: 153 (protein)
VHH: EVQLVESGGGLVQAGGSLRLSCAASGRSFSSSVMGWFRQTPGKEREFVAATRWTAASTHYADSVKGRFTISRDHAENAVFLQMNSLKPEDTAVYYCAAGNYLDTAQYRYNYWGQGTQVTVSS
For B2, the “competition between SP02 and SP26P” value (hPDGFRB) was “did not compete” and the “epitope compared to SP27P, SP28P, SP30P, SP31P and SP36P” value (rPDGFRB) was “unique epitope”.

B3: 13F11-13E8-ABD-AF647: 13F11-13E8-ABD conjugated to Alexa Fluor 647 (conjugate)
chain: EVQLVESGGRLVQPGDSLRLSCAASGRTFSDNAMGWFRQAPGKERRFVAGISWAGGSTYYSDSVKGRFTISRDNAKNTVYLQMNSLKPEDTAVYYCAAGLRAWVQRMPKDYNYWGQGTQVTVSSGGGGSGGGGSGGGGSEVQLVESGGGLVQAGGSLRLSCAASRSISPMGWYRQAPGKQRELVAIMPSSGPPIYADSVQGRFTISRDNAKNTVYLQMNSLKPEDTAVYYCNVGGGYWGQGTQVTVSS
modifications: left off: large carriers; small tags and cut ends
With B3 the “staining of cirrhotic (BDL) rat liver” value (IGF2R [4]) was “strongly stains activated fibroblasts” and the “staining of normal (SHAM) rat liver” value (IGF2R [4]) was “only background signal was detected”.

B4: SP02-SP26-ABD-AF647: SP02-SP26-ABD conjugated to Alexa Fluor 647 (conjugate)
chain: EVQLVESGGGLVQAGGSLRLSCAASESISSIEQMGWFRQAPGKQRALVAINTYGGRTVYTNSVEGRFTMSRDSAKNMVYLQMTSLEPEDTAVYYCYAQTTAWRGGVWGQGTQVTVSSGGGGSGGGGSGGGGSEVQLVESGGGLVQAGGSLRLSCAASGRSFSSSVMGWFRQTPGKEREFVAATRWTAASTHYADSVKGRFTISRDHAENAVFLQMNSLKPEDTAVYYCAAGNYLDTAQYRYNYWGQGTQVTVSS
modifications: left off: large carriers; small tags and cut ends
For B4, the “staining of cirrhotic (BDL) rat liver” value (PDGFRB) was “strongly stains activated fibroblasts” and the “staining of normal (SHAM) rat liver” value (PDGFRB) was “only background signal was detected”.

B5: test conjugate: 13F11-13E8-ABD conjugated to a Y27632-maleimide modified functional moiety (1e) (conjugate)
chain: EVQLVESGGRLVQPGDSLRLSCAASGRTFSDNAMGWFRQAPGKERRFVAGISWAGGSTYYSDSVKGRFTISRDNAKNTVYLQMNSLKPEDTAVYYCAAGLRAWVQRMPKDYNYWGQGTQVTVSSGGGGSGGGGSGGGGSEVQLVESGGGLVQAGGSLRLSCAASRSISPMGWYRQAPGKQRELVAIMPSSGPPIYADSVQGRFTISRDNAKNTVYLQMNSLKPEDTAVYYCNVGGGYWGQGTQVTVSS
modifications: non-natural residues; left off: large carriers; small tags and cut ends
B5 was tested, and the “detection of conjugate in liver” value (IGF2R [5]; BDL rats) was “detected in the liver of BDL rats”, the “distribution in liver versus (tissue) distribution of IGF2R” value (IGF2R [5]; BDL rats, second staining with 13F11-13E8-A647) was “overlapped” and the “detection of conjugate in liver” value (IGF2R [5]; SHAM rats) was “not in the liver of SHAM rats”. For the same molecule, the “mean arterial pressure (MAP)” value [6, 7] was “remained constant”, the “portal pressure (PP)” value [6, 7] was “gradual decrease of portal pressure” and the “portal or arterial pressure” value ([6]; SHAM rats) was “neither the test conjugate nor the mock conjugate affected portal or arterial pressure”.
